Assay [1] deals with iMSCs. Description: quantitative real-time PCR of immunomodulatory marker genes in iMSCs treated with immune stimulators. In kind it is cell-based, human. Conditions: iMSCs 100k cells/sample; dsRNA 500 ng/sample or IFNr 10 ng/ml; 24 hours; particularly IDO1, TLR3 and HGF; control genes CD73, CD90, CD105 not upregulated; FIG. 5. As for the experimental part:
In a first set of studies, iMSCs were treated with immune stimulators, either double-strand RNA (dsRNA) or recombinant human interferon gamma (IFNr)(R&D Systems, Cat. #35-IF-100). iMSCs (100k cells/sample) were cultured with dsRNA (500 ng/sample) or IFNr (10 ng/ml) for 24 hours. […] Immunostimulatory marker genes examined were: RIG1, TLR3, COX2, IDO1, HGF and TGF-beta. Control genes (for MSC surface markers) examined were: CD73, CD90 and CD105.

In assay [2] the test system is iMSCs. Description: IL-10 secretion by iMSCs after IFNr treatment (ELISA). In kind it is cell-based, human. Particulars: IFNr 20 ng/mL or 50 ng/mL for three days; media supernatant; FIG. 7. The method, then: In a third set of experiments, the production of the anti-inflammatory factor IL-10 by the iMSCs was examined after treatment with IFNr. iMSCs (50k cells/well of a 24 well plate; approx. 25,000 cells/cm^2) were treated with low concentration (20 ng/mL) or high concentration (50 ng/mL) IFNr for three days to stimulate secretion of IL-10. The control group was the same culture conditions but without IFNr treatment. After three days, media supernatant was collected and the level of IL-10 secretion was quantified by standard ELISA analysis (human IL-10 Quantikine ELISA kit, R&D Systems, Cat. #D1000B).

Results on one molecule are retold here after patent US20230257714A1, “METHODS AND COMPOSITIONS FOR GENERATING HUMAN INDUCED MESENCHYMAL STEM CELLS” (SmartCella Solutions AB, priority 2022, published 2023).

B1: IFNr: recombinant human interferon gamma (R&D Systems), immune stimulator (protein, UniProt P01579 24-161, looked up)
Interferon gamma: QDPYVKEAENLKKYFNAGHSDVADNGTLFLGILKNWKEESDRKIMQSQIVSFYFKLFKNFKDDQSIQKSVETIKEDMNVKFFNSNKKKRDDFEKLTNYSVTDLNVQRKAIHELIQVMAELSPAAKTGKRKRSQMLFRG
Turning to B1, the “expression of genes associated with immunostimulation (RIG1, TLR3, COX2, IDO1, HGF, TGF-beta)” value with iMSCs [1] was “increased expression”. The “secretion of IL-10 by iMSCs” value in the assay on iMSCs [2] is on record as “dose-dependent”.
